In US20170165339A1 (IMMATICS BIOTECHNOLOGIES, published 2017):

These binders were tested against HLA-A*02 (human) (assay: UV peptide-exchange ELISA, yield grade).

Binder	peptide exchange yield
LLYPEPWSV [LLYPEPWSV (SEQ ID NO: 1)]	≥ 75%
KLEENGDLYL [KLEENGDLYL (SEQ ID NO: 3)]	≥ 75%
KLMPGTYTL [KLMPGTYTL (SEQ ID NO: 4)]	≥ 75%
GIVAHIQEV [GIVAHIQEV (SEQ ID NO: 5)]	50 to 75%
ALFDSLRHV [ALFDSLRHV (SEQ ID NO: 6)]	50 to 75%
ILDHEVPSL [ILDHEVPSL (SEQ ID NO: 7)]	50 to 75%
FLVDGSYSI [FLVDGSYSI (SEQ ID NO: 9)]	50 to 75%
GIAGSLKTV [GIAGSLKTV (SEQ ID NO: 10)]	50 to 75%
ALSPSYLTV [ALSPSYLTV (SEQ ID NO: 11)]	50 to 75%
GLLPLLHRA [GLLPLLHRA (SEQ ID NO: 12)]	≥ 75%
ALMAMLVYV [ALMAMLVYV (SEQ ID NO: 13)]	20 to 49%
ILAKDLFEI [ILAKDLFEI (SEQ ID NO: 14)]	≥ 75%
YLDLSHNQL [YLDLSHNQL (SEQ ID NO: 15)]	50 to 75%
YTLDIPVLFGV [YTLDIPVLFGV (SEQ ID NO: 16)]	≥ 75%
ILLDLTDNRL [ILLDLTDNRL (SEQ ID NO: 18)]	50 to 75%
SISDNVWEV [SISDNVWEV (SEQ ID NO: 19)]	50 to 75%
GLSQITNQL [GLSQITNQL (SEQ ID NO: 20)]	50 to 75%
AIQDEIRSV [AIQDEIRSV (SEQ ID NO: 21)]	50 to 75%
FVDPNTQEKV [FVDPNTQEKV (SEQ ID NO: 22)]	20 to 49%
SLFSDEFKV [SLFSDEFKV (SEQ ID NO: 23)]	50 to 75%
TLDEKVAEL [TLDEKVAEL (SEQ ID NO: 24)]	50 to 75%
TMDSVLVTV [TMDSVLVTV (SEQ ID NO: 25)]	50 to 75%
ALQEELTEL [ALQEELTEL (SEQ ID NO: 26)]	50 to 75%
RLMEENWNA [RLMEENWNA (SEQ ID NO: 27)]	50 to 75%
SLPNGKPVSV [SLPNGKPVSV (SEQ ID NO: 28)]	50 to 75%

Binder	peptide exchange yield
YLLDPSITL [YLLDPSITL (SEQ ID NO: 29)]	50 to 75%
AMIEEVFEA [AMIEEVFEA (SEQ ID NO: 30)]	20 to 49%
TITETTVEV [TITETTVEV (SEQ ID NO: 31)]	50 to 75%
VQLDSIEDLEV [VQLDSIEDLEV (SEQ ID NO: 32)]	50 to 75%
YIKTELISV [YIKTELISV (SEQ ID NO: 33)]	50 to 75%
FLLATEVVTV [FLLATEVVTV (SEQ ID NO: 34)]	≥ 75%
FLLPFSTVYL [FLLPFSTVYL (SEQ ID NO: 35)]	50 to 75%
SLADTNSLAVV [SLADTNSLAVV (SEQ ID NO: 36)]	50 to 75%
ILAPFSVDL [ILAPFSVDL (SEQ ID NO: 37)]	50 to 75%
FLGPRIIGL [FLGPRIIGL (SEQ ID NO: 38)]	50 to 75%
HLLEGSVGV [HLLEGSVGV (SEQ ID NO: 39)]	50 to 75%
VLIDPQWVLTA [VLIDPQWVLTA (SEQ ID NO: 40)]	50 to 75%
ALFENTPKA [ALFENTPKA (SEQ ID NO: 41)]	20 to 49%
LLDSVSRL [LLDSVSRL (SEQ ID NO: 42)]	< 20%
SLFETAWEA [SLFETAWEA (SEQ ID NO: 44)]	50 to 75%
SQFPLPLAV [SQFPLPLAV (SEQ ID NO: 46)]	20 to 49%
ALLERGELFV [ALLERGELFV (SEQ ID NO: 47)]	50 to 75%
QVIEDSTGV [QVIEDSTGV (SEQ ID NO: 48)]	20 to 49%
ALNIATHVL [ALNIATHVL (SEQ ID NO: 49)]	50 to 75%
ILFHGVFYA [ILFHGVFYA (SEQ ID NO: 50)]	50 to 75%
LLFSRLCGA [LLFSRLCGA (SEQ ID NO: 51)]	≥ 75%
KMVGLVVAI [KMVGLVVAI (SEQ ID NO: 53)]	50 to 75%
VLNPLITAV [VLNPLITAV (SEQ ID NO: 54)]	50 to 75%
SLATKIVEA [SLATKIVEA (SEQ ID NO: 55)]	50 to 75%
FLHDEKEGIYI [FLHDEKEGIYI (SEQ ID NO: 56)]	50 to 75%

Binder	peptide exchange yield
TVFTDHMLTV [TVFTDHMLTV (SEQ ID NO: 57)]	20 to 49%
YLLPLLPAL [YLLPLLPAL (SEQ ID NO: 58)]	50 to 75%
KLLDPQEFTL [KLLDPQEFTL (SEQ ID NO: 59)]	50 to 75%
ALFAPLVHL [ALFAPLVHL (SEQ ID NO: 60)]	50 to 75%
AIVKEIVNI [AIVKEIVNI (SEQ ID NO: 61)]	20 to 49%
ALNPELVQA [ALNPELVQA (SEQ ID NO: 62)]	20 to 49%
SQIPAQPSV [SQIPAQPSV (SEQ ID NO: 63)]	20 to 49%
SLFPDSLIV [SLFPDSLIV (SEQ ID NO: 64)]	20 to 49%
SVVPDVRSV [SVVPDVRSV (SEQ ID NO: 65)]	20 to 49%
KLIFSVEAV [KLIFSVEAV (SEQ ID NO: 66)]	50 to 75%
TLLQRLTEV [TLLQRLTEV (SEQ ID NO: 67)]	50 to 75%
SLSNRLYYL [SLSNRLYYL (SEQ ID NO: 68)]	50 to 75%
FLAVGLVDV [FLAVGLVDV (SEQ ID NO: 69)]	50 to 75%
LLLGDSALYL [LLLGDSALYL (SEQ ID NO: 70)]	50 to 75%
VLHSKFWVV [VLHSKFWVV (SEQ ID NO: 71)]	50 to 75%
FLTAINYLL [FLTAINYLL (SEQ ID NO: 72)]	50 to 75%
YTLREVDTV [YTLREVDTV (SEQ ID NO: 73)]	20 to 49%
TLFGYSVVL [TLFGYSVVL (SEQ ID NO: 74)]	50 to 75%
AVIKFLELL [AVIKFLELL (SEQ ID NO: 75)]	50 to 75%
AVGPVHNSV [AVGPVHNSV (SEQ ID NO: 76)]	20 to 49%
TLIDEQDIPLV [TLIDEQDIPLV (SEQ ID NO: 77)]	50 to 75%
TVVTRLDEI [TVVTRLDEI (SEQ ID NO: 78)]	20 to 49%
VTFKEYVTV [VTFKEYVTV (SEQ ID NO: 79)]	20 to 49%
KLYEADFVL [KLYEADFVL (SEQ ID NO: 80)]	20 to 49%
NALDKVLSV [NALDKVLSV (SEQ ID NO: 81)]	50 to 75%
